Test results as given in the supplement of paper PMC7877785.
± gives the uncertainty stated by the source.

Experiment: self-splicing fitness, log relative to wild type (ln ratio); higher = more splicing; Tetrahymena group I intron in knt gene, E. coli kanamycin selection, DiMSum; sequences stand for … in CUCUCU…GGAGGGAAAAGUUAUCAGGCAUGCACCUGGUAGCUAGUCUUUAAACCAAUAGAUUGCAUCGGUUUAAAAGGCAAGACCGUCAAAUUGCGGGAAAGGGGUCAACAGCCGUUCAGUACCAAGUCUCAGGGGAAACUUUGAGAUGGCCUUGCAAAGGGUAUGGUAAUAAGCUGACGGACAUGGUCCUAACCACGCAGCCAAGUCCUAAGUCAACAGAUCUUCUGUUGAUAUGGAUGCAGUUCACAGACUAAAUGUCGGUCGGGGAAGAUGUAUUCUUCUCAUAAGAUAUAGUCGGACCUCUCCUUAAUGGGAGCUAGCGGAUGAAGUGAUGCAACACUGGAGCCGCUGGGAACUAAUUUGUAUGCGAAAGUAUAUUGAUUAGUUUUGGAGUACUCGUGGUCG
Outline: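 A randomised library covering all eight P1ex-region intron nucleotides was built with the intron in the knt kanamycin-resistance gene on pET-22b(+) and held in E. coli BL21(DE3). Cells were grown overnight at 37°C or 30°C on LB agar, with or without 25 μg/mL kanamycin, plus 100 μg/mL carbenicillin, 50 μM IPTG and 0.2% rhamnose, and pooled colonies were amplicon-sequenced on an Illumina HiSeq 2500. DiMSum fitness is the error-weighted combination of wild-type-normalised replicate fold changes, kanamycin versus none.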

AGACAGCAAUAUUACGACCU
self-splicing fitness (ln) (30 °C): 0.0744 ± 0.084 | self-splicing fitness (ln) (37 °C): -0.545 ± 0.093

AGACAGCAAUAUUACGACGG
self-splicing fitness (ln) (30 °C): -2.19 ± 0.14 | self-splicing fitness (ln) (37 °C): -1.86 ± 0.13

AGACAGCAAUAUUACGACUA
self-splicing fitness (ln) (30 °C): -0.888 ± 0.092 | self-splicing fitness (ln) (37 °C): -0.383 ± 0.088

AGACAGCAAUAUUACGAGGC
self-splicing fitness (ln) (30 °C): -3.34 ± 0.23 | self-splicing fitness (ln) (37 °C): -2.82 ± 0.3

AGACAGCAAUAUUACGCAGU
self-splicing fitness (ln) (30 °C): -3.96 ± 0.2 | self-splicing fitness (ln) (37 °C): -3.04 ± 0.27

AGACAGCAAUAUUACGCCCA
self-splicing fitness (ln) (30 °C): -0.00321 ± 0.2 | self-splicing fitness (ln) (37 °C): 0.432 ± 0.28

AGACAGCAAUAUUACGCCCU
self-splicing fitness (ln) (30 °C): -0.687 ± 0.083 | self-splicing fitness (ln) (37 °C): 0.0722 ± 0.1

AGACAGCAAUAUUACGCCGG
self-splicing fitness (ln) (30 °C): -2.95 ± 0.18 | self-splicing fitness (ln) (37 °C): -1.67 ± 0.16

AGACAGCAAUAUUACGCGCG
self-splicing fitness (ln) (30 °C): -0.587 ± 0.074 | self-splicing fitness (ln) (37 °C): 0.222 ± 0.096

AGACAGCAAUAUUACGCUAU
self-splicing fitness (ln) (30 °C): -3.31 ± 0.18 | self-splicing fitness (ln) (37 °C): -0.948 ± 0.12

AGACAGCAAUAUUACGCUGC
self-splicing fitness (ln) (30 °C): -3.72 ± 0.2 | self-splicing fitness (ln) (37 °C): -2.64 ± 0.24

AGACAGCAAUAUUACGCUGG
self-splicing fitness (ln) (30 °C): -3.98 ± 0.31 | self-splicing fitness (ln) (37 °C): -3.5 ± 0.3

AGACAGCAAUAUUACGGAAU
self-splicing fitness (ln) (30 °C): -3.47 ± 0.14 | self-splicing fitness (ln) (37 °C): -2.29 ± 0.17

AGACAGCAAUAUUACGGACC
self-splicing fitness (ln) (30 °C): -0.551 ± 0.075 | self-splicing fitness (ln) (37 °C): -0.201 ± 0.086

AGACAGCAAUAUUACGGAGG
self-splicing fitness (ln) (30 °C): -3.35 ± 0.18 | self-splicing fitness (ln) (37 °C): -2.48 ± 0.23

AGACAGCAAUAUUACGGCAA
self-splicing fitness (ln) (30 °C): -1.37 ± 0.064 | self-splicing fitness (ln) (37 °C): -0.634 ± 0.079

AGACAGCAAUAUUACGGCCC
self-splicing fitness (ln) (30 °C): -0.119 ± 0.2 | self-splicing fitness (ln) (37 °C): -0.253 ± 0.25

AGACAGCAAUAUUACGGCGU
self-splicing fitness (ln) (30 °C): -0.937 ± 0.057 | self-splicing fitness (ln) (37 °C): -0.314 ± 0.065

AGACAGCAAUAUUACGGGAA
self-splicing fitness (ln) (30 °C): -2.68 ± 0.18 | self-splicing fitness (ln) (37 °C): -1.38 ± 0.14

AGACAGCAAUAUUACGGGGU
self-splicing fitness (ln) (30 °C): -3.82 ± 0.17 | self-splicing fitness (ln) (37 °C): -2.25 ± 0.15

AGACAGCAAUAUUACGGUUG
self-splicing fitness (ln) (30 °C): -1.85 ± 0.088 | self-splicing fitness (ln) (37 °C): -1.87 ± 0.13

AGACAGCAAUAUUACGUUAC
self-splicing fitness (ln) (30 °C): -3.81 ± 0.19 | self-splicing fitness (ln) (37 °C): -1.34 ± 0.17

AGACAGCAAUAUUACGUUUG
self-splicing fitness (ln) (30 °C): -3.34 ± 0.11 | self-splicing fitness (ln) (37 °C): -1.22 ± 0.086

AGAGAGCAAUAUUACGAACU
self-splicing fitness (ln) (30 °C): -1.81 ± 0.2 | self-splicing fitness (ln) (37 °C): -1.57 ± 0.2

AGAGAGCAAUAUUACGACUA
self-splicing fitness (ln) (30 °C): -2.42 ± 0.44

AGAGAGCAAUAUUACGAGAG
self-splicing fitness (ln) (37 °C): -2.3 ± 0.44

AGAGAGCAAUAUUACGGCCU
self-splicing fitness (ln) (30 °C): -0.408 ± 0.3 | self-splicing fitness (ln) (37 °C): -2.58 ± 0.5

AGAGAGCAAUAUUACGGCGU
self-splicing fitness (ln) (30 °C): -2.48 ± 0.19 | self-splicing fitness (ln) (37 °C): -2.7 ± 0.25

AGAGAGCAAUAUUACGGUCC
self-splicing fitness (ln) (30 °C): -2.21 ± 0.3 | self-splicing fitness (ln) (37 °C): -0.974 ± 0.46

AGAGAGCAAUAUUACGGUCU
self-splicing fitness (ln) (30 °C): -3.2 ± 0.15 | self-splicing fitness (ln) (37 °C): -2.71 ± 0.29

AGAGAGCAAUAUUACGGUGU
self-splicing fitness (ln) (30 °C): -3.59 ± 0.25 | self-splicing fitness (ln) (37 °C): -2.97 ± 0.22

AGAGAGCAAUAUUACGUAUG
self-splicing fitness (ln) (30 °C): -4.21 ± 0.24 | self-splicing fitness (ln) (37 °C): -3.33 ± 0.27

AGAGAGCAAUAUUACGUCGU
self-splicing fitness (ln) (30 °C): -3.77 ± 0.32 | self-splicing fitness (ln) (37 °C): -1.78 ± 0.22

AGAGAGCAAUAUUACGUGUU
self-splicing fitness (ln) (30 °C): -3.21 ± 0.18 | self-splicing fitness (ln) (37 °C): -3.64 ± 0.36

AGAGAGCAAUAUUACGUUUC
self-splicing fitness (ln) (30 °C): -2.27 ± 0.21 | self-splicing fitness (ln) (37 °C): -1.41 ± 0.23

AGAUAGCAAUAUUACGAAUC
self-splicing fitness (ln) (30 °C): -1.46 ± 0.18 | self-splicing fitness (ln) (37 °C): -1.06 ± 0.24

AGAUAGCAAUAUUACGACGC
self-splicing fitness (ln) (30 °C): -0.572 ± 0.16 | self-splicing fitness (ln) (37 °C): 0.997 ± 0.22

AGAUAGCAAUAUUACGACGG
self-splicing fitness (ln) (30 °C): -2.09 ± 0.2 | self-splicing fitness (ln) (37 °C): -1.55 ± 0.25

AGAUAGCAAUAUUACGAGUG
self-splicing fitness (ln) (30 °C): -2.72 ± 0.15 | self-splicing fitness (ln) (37 °C): -1.22 ± 0.14

AGAUAGCAAUAUUACGAUAA
self-splicing fitness (ln) (30 °C): -2.02 ± 0.11 | self-splicing fitness (ln) (37 °C): -1.16 ± 0.11

AGAUAGCAAUAUUACGAUAG
self-splicing fitness (ln) (30 °C): -2.88 ± 0.21 | self-splicing fitness (ln) (37 °C): -2.31 ± 0.18

AGAUAGCAAUAUUACGAUGU
self-splicing fitness (ln) (30 °C): -0.932 ± 0.079 | self-splicing fitness (ln) (37 °C): -0.112 ± 0.086

AGAUAGCAAUAUUACGCACC
self-splicing fitness (ln) (30 °C): 0.321 ± 0.21 | self-splicing fitness (ln) (37 °C): 0.267 ± 0.34

AGAUAGCAAUAUUACGCACG
self-splicing fitness (ln) (30 °C): -1.13 ± 0.14 | self-splicing fitness (ln) (37 °C): -0.355 ± 0.12

AGAUAGCAAUAUUACGCCCU
self-splicing fitness (ln) (30 °C): -0.337 ± 0.19 | self-splicing fitness (ln) (37 °C): 0.138 ± 0.21

AGAUAGCAAUAUUACGCCUC
self-splicing fitness (ln) (30 °C): -3.23 ± 0.26 | self-splicing fitness (ln) (37 °C): -2.26 ± 0.29

AGAUAGCAAUAUUACGCGCU
self-splicing fitness (ln) (30 °C): -2.31 ± 0.12 | self-splicing fitness (ln) (37 °C): -1.44 ± 0.14

AGAUAGCAAUAUUACGCUCA
self-splicing fitness (ln) (30 °C): -0.765 ± 0.087 | self-splicing fitness (ln) (37 °C): -0.082 ± 0.11
